# Experiments:
# [1] = Body temperature monitoring for systemic anaphylactic response after intranasal C3a; type: in vivo, mouse
# Protocol: Purified human C3a peptide (Complement Technologies) was diluted in sterile phosphate buffered saline (PBS) to a concentration of 200 nM and a total of 20 μl (10 μl/nostril; corresponding to approximately 1.13 μg/kg body weight) of peptide solution or PBS was given intranasally to awake, hand-restrained mice held in a supine position. Solutions were administered through a pipette tip, drop-wise in 5 μl portions divided by 1 min intervals to allow for absorption. C3a or PBS was given every 24 hours on days 7 to 21 post-stroke for the short-term study or on days 7 to 28 post-stroke for the long-term study. Mice were assigned to C3a or PBS treatment using randomization stratified by body weight to avoid potential confounding effects of body weight on behavioural performance. The investigators carrying out behavioural studies and analysing data were blinded to treatment group. For the assessment of potential systemic anaphylactic response due to intranasal C3a inoculation, body temperature was monitored using a rectal temperature probe (Harvard Apparatus) inserted approximately 4 mm into the rectum of awake mice restrained by the scruff. Baseline temperature was taken before intranasal administration and 5, 15, 30, 45 and 75 min after C3a or PBS administration.
# VGLUT1+ puncta = experiment: VGLUT1 immunostaining of cortex 21 days after stroke; type: in vivo, mouse; conditions: ipsilesional cortex, in particular deep cortical layers
# Protocol: For immunofluorescent evaluation, sections were deparaffinized, heated three times for 5 min in a microwave oven in 0.01 M citric buffer (pH 6.0), and blocked in PBS containing 0.05% Tween-20 (Sigma) and 1% in Bovine serum albumin (BSA, Sigma) for GAP-43 and synapsin I staining, 3% normal goat serum for VGLUT1 staining or 4% normal donkey serum for GAP-43 double stainings. Goat anti-synapsin la/b antibody (1:150; Santa Cruz, sc-7379) was followed by biotin-conjugated donkey anti-goat immunoglobulin (Ig) secondary antibody (1:200; Jackson Research Lab, 705-065-147) and Cy3-conjugated streptavidin (1:100; Sigma). Guinea pig anti-VGLUT1 (1:500; Millipore, AB5905) was followed by Alexa Fluor 488 goat anti-guinea pig Ig (1:500; Molecular Probes, A11073). […]
# Highest signal intensity single plane images of immunostained sections were obtained by laser scanning confocal microscope (LSM TCS SP2, Leica Microsystems, ×63/NA 1.3 objective for synapsin I and GAP-43; and LSM 700, Carl Zeiss for VGLUT1 ×40/NA 1.3) at 1024×1024 pixels resolution. […] Three standard sections per animal in 160 μm intervals were analysed. […]
# Single-stained images were analysed using MetaMorph® software (Molecular Devices, ver. 2.8.5) to obtain number, average size and intensity of positive punctuate structures per image. […] An experimenter blinded to experimental group performed all image acquisitions and quantifications.
# microglia and astrocytes = conditions: in vitro; cited from earlier work
substance,measurement,setting,value
"C3a: Purified human C3a peptide (Complement Technologies), C3a receptor agonist, amino acid sequence SEQ ID NO: 1",duration of the drop in body temperature,[1]; after intranasal C3a or PBS,5 to 10 min
same,adverse or systemic effects of intranasal C3a,"[1]; even after repeated administration, stroke studies",did not observe any adverse or systemic effects
same,adverse systemic response (hypersensitivity/anaphylaxis) to intranasal C3a,[1]; judged from body temperature,absence of an adverse systemic response
same,change in body temperature after intranasal administration,"[1]; rectal probe, awake mice, baseline and 5, 15, 30, 45, 75 min after intranasal C3a, same seen with PBS",very small drop in body temperature
same,density and size of VGLUT1+ puncta,VGLUT1+ puncta,higher density and size
same,NGF expression,microglia and astrocytes,induces upregulation of neural growth factor (NGF)
